According to patent US20170189507A1:

What follows are binders tested against HLA-A*24 (human) (assay: UV-ligand exchange ELISA).

| peptide exchange yield [%] | Binder |
| --- | --- |
| 50 to 75 | NYYEVHKELF [peptide SEQ ID No 270] |
| 50 to 75 | TFSVSSHLF [peptide SEQ ID No 222] |
| 50 to 75 | YYKSTSSAF [peptide SEQ ID No 218] |
| > 75 | VYWDSAGAAHF [peptide SEQ ID No 202] |
| 50 to 75 | TYKDEGNDYF [peptide SEQ ID No 209] |
| 50 to 75 | LYITEPKTI [peptide SEQ ID No 287] |
| 20 to 49 | AYVVFVSTL [peptide SEQ ID No 207] |
| 50 to 75 | QYLGQIQHI [peptide SEQ ID No 268] |
| > 75 | VYQGHTALL [peptide SEQ ID No 277] |
| 50 to 75 | YFIDSTNLKTHF [peptide SEQ ID No 269] |
| 50 to 75 | RYAEEVGIF [peptide SEQ ID No 199] |
| 50 to 75 | YYGPSLFLL [peptide SEQ ID No 200] |
| 50 to 75 | IYATEAHVF [peptide SEQ ID No 201] |
| > 75 | TYELRYFQI [peptide SEQ ID No 204] |
| 20 to 49 | PYRLIFEKF [peptide SEQ ID No 281] |
| 50 to 75 | HYPPVQVLF [peptide SEQ ID No 285] |
